Data published in the supplement of paper PMC10126150.
± gives the standard deviation of the averaged measurements.

Tested on: ATP
Test: switch fluorescence ratio, 500 uM ATP over buffer (Cy3 cluster intensity, sum of 5 cycles each) (fold (ratio)); higher = stronger signal-on switching upon ATP binding; sequences stand for … in TCGTCGGCAGCGTCAGATGTGTATAAGAGACAGTTTTTTTTTTTTTTTTTTTTTTTTT…TC
Conditions: aptamer strand: ATP DNA aptamer (quencher-CACCTGGGGGAGTATTGCGGAGGAAGG + anchor), 100 nM annealed; ATP concentration: 500 uM
Procedure, shortened: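 Values give the fluorescence ratio for each switch-domain sequence, averaged from per-cluster ratios of summed target-cycle to summed buffer-cycle Cy3 intensity. The Cy3-labelled switching-strand clusters sat on a modified Illumina MiSeq flow-cell, were annealed to 100 nM quencher-labelled ATP aptamer, and were imaged in selection buffer, then after 15 min with 500 uM ATP at 22 °C. Five cycles ran with NaOH stripping and re-annealing between them, and clusters outside 100-1000 RFU were excluded.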
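Also: ATP exposure 15 min at 22 °C before imaging.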

Row | Sequence | switch fluorescence ratio
1 | GGTTTGAGGT | 0.993 ± 0.027
2 | GGTTTGCGGG | 1.01 ± 0.0095
3 | GGTTTGGCTG | 0.993 ± 0.038
4 | GGTTTGGGG | 1.03 ± 0.016
5 | GGTTTGGGGT | 0.99 ± 0.032
6 | GGTTTGGGTT | 0.998 ± 0.037
7 | GGTTTGGTG | 1.006 ± 0.0058
8 | GGTTTTAATG | 0.988 ± 0.031
9 | GGTTTTAGTT | 0.986 ± 0.03
10 | GGTTTTATAT | 1.006 ± 0.0068
11 | GGTTTTGAAG | 0.9959 ± 0.0063
12 | GGTTTTGACA | 0.9941 ± 0.0065
13 | GGTTTTGAGA | 1.02 ± 0.029
14 | GGTTTTGAGG | 0.973 ± 0.011
15 | GGTTTTGCAG | 0.9946 ± 0.0069
16 | GGTTTTGTGG | 1.01 ± 0.03
17 | GGTTTTGTGT | 0.962 ± 0.038
18 | GGTTTTTCTG | 0.992 ± 0.061
19 | GGTTTTTGGA | 0.981 ± 0.038
20 | GGTTTTTGTG | 1.01 ± 0.034
21 | GTAAAAGCGG | 0.9788 ± 0.0082
22 | GTAAAATGGG | 0.997 ± 0.011
23 | GTAAAGGGCG | 0.973 ± 0.021
24 | GTAAATATAG | 0.9813 ± 3.7e-05
25 | GTAAATATGG | 0.987 ± 0.024

Row | Sequence | switch fluorescence ratio
26 | GTAACAGATT | 0.976 ± 0.039
27 | GTAACGTTAG | 0.998 ± 0.042
28 | GTAACTTTTT | 1.056 ± 0.0034
29 | GTAAGAATGG | 1.03 ± 0.03
30 | GTAAGAGTGC | 1.03 ± 0.026
31 | GTAAGAGTTC | 1.02 ± 0.051
32 | GTAAGATATT | 0.9994 ± 0.0098
33 | GTAAGGAGAG | 1.02 ± 0.017
34 | GTAAGGGAAA | 1.02 ± 0.051
35 | GTAAGTTGGG | 0.993 ± 0.024
36 | GTAATAAGAT | 0.996 ± 0.0046
37 | GTAATAAGGA | 0.994 ± 0.029
38 | GTAATAATTT | 0.9982 ± 0.0034
39 | GTAATAGAGA | 1.01 ± 0.043
40 | GTAATCGCAA | 2.65 ± 0.15
41 | GTAATGGATC | 0.986 ± 0.042
42 | GTAATGTCTT | 0.9797 ± 0.0084
43 | GTAATTAGAT | 0.969 ± 0.022
44 | GTAATTTAGT | 1.02 ± 0.022
45 | GTAATTTATC | 1.0089 ± 0.00052
46 | GTAATTTATG | 1.01 ± 0.02
47 | GTAATTTGGT | 0.9904 ± 0.0032
48 | GTACGGGGAA | 1.04 ± 0.03
49 | GTACGGGGGT | 0.996 ± 0.059
50 | GTACTAGTAT | 0.977 ± 0.023

Row | Sequence | switch fluorescence ratio
51 | GTACTGGATT | 0.988 ± 0.035
52 | GTACTGTAGG | 1 ± 0.026
53 | GTACTTGGCT | 1.016 ± 0.0023
54 | GTACTTTCGG | 0.98 ± 0.015
55 | GTAGAAAAAA | 1.002 ± 0.01
56 | GTAGAAAGTA | 0.973 ± 0.031
57 | GTAGAAGGGT | 1.01 ± 0.016
58 | GTAGCCCGGG | 0.993 ± 0.026
59 | GTAGCGGCTG | 1.037 ± 0.01
60 | GTAGCTATAT | 4.08 ± 0.14
61 | GTAGGACGTC | 1.02 ± 0.011
62 | GTAGGCGGGG | 0.99 ± 0.018
63 | GTAGGCTAGT | 1 ± 0.033
64 | GTAGGGAACC | 0.976 ± 0.025
65 | GTAGGGGGGT | 1.07 ± 0.21
66 | GTAGGGGGTT | 0.9951 ± 0.0041
67 | GTAGGGTCAG | 0.994 ± 0.027
68 | GTAGTAGCGG | 1.02 ± 0.025
69 | GTAGTCTAGA | 0.965 ± 0.024
70 | GTAGTTACGG | 1.05 ± 0.019
71 | GTAGTTAGGG | 1.02 ± 0.015
72 | GTAGTTCGGG | 0.997 ± 0.036
73 | GTAGTTTTGC | 1.0341 ± 0.00013
74 | GTATAAAGGG | 1.02 ± 0.048
75 | GTATAAGAGC | 0.985 ± 0.033

Row | Sequence | switch fluorescence ratio
76 | GTATAATTGT | 0.984 ± 0.019
77 | GTATAATTTG | 0.9933 ± 0.0019
78 | GTATACATTG | 1.02 ± 0.027
79 | GTATAGTCGG | 1.04 ± 0.017
80 | GTATATGGTC | 1.02 ± 0.03
81 | GTATCCTATA | 1 ± 0.017
82 | GTATCTAGTT | 0.996 ± 0.024
83 | GTATGAATCG | 0.961 ± 0.056
84 | GTATGAATGT | 0.985 ± 0.03
85 | GTATGAATTA | 0.985 ± 0.033
86 | GTATGACAGT | 1.02 ± 0.032
87 | GTATGGGTTT | 0.975 ± 0.012
88 | GTATGGTAGG | 1.03 ± 0.05
89 | GTATGTCCCC | 1.0169 ± 0.00096
90 | GTATTAAAGC | 1.024 ± 0.0052
91 | GTATTAGGGG | 1.01 ± 0.028
92 | GTATTATGGG | 1 ± 0.029
93 | GTATTATTAA | 1.05 ± 0.0015
94 | GTATTGGATA | 0.998 ± 0.042
95 | GTATTGGGTT | 1 ± 0.056
96 | GTATTTCCGG | 0.9965 ± 0.0056
97 | GTATTTTTTG | 0.9958 ± 0.0069
98 | GTCAAATATG | 0.9678 ± 0.0028
99 | GTCAGAACG | 1.03 ± 0.014
100 | GTCAGCAAAT | 1.05 ± 0.02
